Test results taken from the DeepSol protein solubility set.

Assay: soluble on expression in E. coli; label from the status in PepcDB or PDB records
In the case of “ATRSPGVVISDDEPGYDLDLFCIPNHYAEDLERVFIPHGLIMDRTERLARDVMKEMGGHHIVALCVLKGGYKFFADLLDYIKALNRNSDRSIPMTVDFIRLKSYCNDQSTGDIKVIGGDDLSTLTGKNVLIVEDIIDTGKTMQTLLSLVRQYNPKMVKVASLLVKRTPRSVGYKPDFVGFEIPDKFVVGYALDYNEYFRDLNHVCVISETGKAKYKA”, the “soluble on expression in E. coli” value is reported as “soluble”. With “MIGKKSFQTNVYRMSKFDTYIFNNLYINDYKMFWIDSGIAKLIDKNCLVSYEINSSSIILLKKNSIQRFSLTSLSDENINVSVITISDSFIRSLKSYILGDLMIRNLYSENKDLLLWNCEHNDIAVLSEVVNGFREINYSDEFLKVFFSGFFSKVEKKYNSIFITDDLDAMEKISCLVKSDITRNWRWADICGELRTNRMILKKELESRGVKFRELINSIRISYSISLMKTGEFKIKQIAYQSGFASVSYFSTVFKSTMNVAPSEYLFMLTGVAEK” the “soluble on expression in E. coli” value was “soluble”. With “MNVFAFSISGGGSERSYKETEKTSAMTTTHSTKLQPSQAILFKMREDAPPLNLTEEMPPPFPTKANYLIHPVRLEHHHHHH” the “soluble on expression in E. coli” value was “not soluble”. With “MSTQMSVFLSTQAAQPQWGEKALISFAEQGATIHLQQTQDFSAIQRAARKLDNQGIRTAFLAGEGWDLESIWAFYQGYRDAKKRNTVEWKALAAAEQVELEARIKATDWTRDIINKSAEEVAPRQLATMAAEFIKSLAPDHVSYRIVKDKDLLTEGWEGIYAVGRGSERTSAMLQLDYNPTGDENAPVFACLVGKGITFDSGGYSLKPSNMMSAMKADMGGSGMITGALGLAIMRGFNKRVKLILCCAENMVSGRALKLGDIITYKNGKTVEIMNTDAEGRLVLADGLIYASEQKPQLIIDCATLTGAAKNALGNDYHALLSYDESLSQQALAAAKEENEALWALPLAEFHREMLPSNFADLSNISNGDYTPGASTAAAFLSYFVEGYQKGWLHFDCSATYRKSASDKWAAGATGMGVKMLARILMQQA” the “soluble on expression in E. coli” value was “not soluble”. For “MGHHHHHHSHMKNSEESSSSSEDTNNATDTNTSESQDISVNGPEKVGDVYEIDGGTAKVMAISNKETTVKTGPIQFTVKKVIAAVANEQLPFIDVQIESENTSDEVVRFRPSLAQLATSTGVQIDEPSLLESDRLLDEYVGKVNDSGSIIYVFDNEEDIKDLESIRLRISSPFNEDLKNLGDKLDLKINLEH”, the “soluble on expression in E. coli” value was “soluble”. In the case of “MTAPTLAPIDPPARAQLLADLQGAPDWDVIVIGGGATGLGTAVDAAARGYRTLLVEAADFAKGTSSKATKLVHGGVRYLAQGNISLVREALHERGLLNRNAPHLVWPLGFVVPAYSLLDQPFYGVGLKMYDMLAGKLNLAPSRWLSRGETLRHAATVAERVNGRALRGGILYYDGQFDDARLAIALMRTLYDLGGVALNYARAVGLTRTDGRVDGVTVADALGELRVTLRAKCVVNATGVWVDAVRRMDDPAAQTMVAPSQGVHLTLPRDFLPGEDAILIPKTDDGRVLFVVPWNGHTIVGTTDTPRTDLPLDPQAGQNEIDFILATAARYLSRKPTRADVTSVWAGLRPLVKATGEASTKSLSREHTIVVSKGGLVTVTGGKWTTYRKMAQDVVDTAIQHKLLAAAPCRTSELPLHGAPTDGQPSGAPHGTPDSYYGTDLATLRALPGADRMLVKASALTEAHVRYAARHELARTVEDVLARRNRALFLDAEAALLAAPEVARILAQELGHDEAWSRATLAEFEAVAAHYRLALEHHHHHH”, the “soluble on expression in E. coli” value is reported as “soluble”. With “MSLGSFTDVPANSQFYTEISWLASQGISTGWVEANGTSTYRPALAVNRDAMAAFMYRLAGSPAYTPPGTSPFIDVTPQTQFYKEIAWLASKGISTGWDEGNGAKSYRPLQTVNRDAMAAFMYRFAGSPAYNAPGASLFTDVVPQTQFYKEINWLASMNISTGWVEGNGTRTFRPVQSVNRDAMAAFMYRYNNAFPAEGHHHHHH” the “soluble on expression in E. coli” value was “not soluble”. In the case of “DADAEFDIVIGNIEDIIMEDEFQHLQQSFMEKYYLEFDDSEENKLSYTPIFNEYIEILEKHLEQQLVERIPGFNMDAFTHSLKQHKDEVSGDILDMLLTFTDFMAFKEMFTDYRAEKEGRG”, the “soluble on expression in E. coli” value is reported as “soluble”. For “MAMADEQFENYLVMCYDKLESKQQKFISDYNIYNFDEYCYDQDPCILQFKKNGQVLLEFSVVFIGSWSGKSNSWMWSWANENVADYARSKSNCLKDLQKITGSEVFINPLFECDQEMAYELAAFSIEYLDAEGMYMAPGERSDVFMAVMSPHAL”, the “soluble on expression in E. coli” value was “not soluble”. For “MGSDKIHHHHHHMEFYERAKKYEYKFTDTEDMIIEYMRKNKEEIVKLSIQSLADKFFTVPNTIVRLCKKMEYDGFSQLKNNLKEELKNENKEPKNGFESDIKKTLELIDYEKINKVADIIQKSRSIIVYGIGQNIPLCEILVKEIRGGHDNITYYSQRHEVLHDIGKLGEQDMFFALSLSGETKEVIEAAKTAVNKGCKVVALTHICENQLQQIADISLYCYSTIKQVNGYNISDKVPIMMIMRAIIEQYWLR”, the “soluble on expression in E. coli” value was “not soluble”. For “MSLKNENKMIIYQVFTRLFGNNNNHCIYNGDISQNGCGKMADFTAKALGEIKKLGATHIWYTGIIEHASQTDYRRYNIRPDHPAIVKGKAGSPYAIKDYYDVDPDLATDVPGRMKEFENLVSRTHRAGLKVIIDFVPNHVARQYHSDAQPDGTTQLGANDDPNYSFSPYNNFYYIPQSELHGQFDMTGNALEPYHEFPAKATGNNRFDAYPNINDWYETVKLNYGVDYQNGGTCHFSPTPDTWTKMLDILLFWSSKNIDGFRCDMAEMVPVEFWEWAIPQVKQEYPNIIFIAEVYNPHEYKNYLFRGKFDFLYDKVGLYDTLRNVACGYDSATAITRSWQSLGGIEKRMLNFLENHDEQRIASDFFAGDPRKGVPALIVSACMNTNPMMIYFGQEFGEMGMDSEGFSGRDGRTTIFDYWSVDTIRRWRNEGKFDGKMLTEEQKHLYAIYQRVLTLCNEEQAISNGVFFDLMYANENGWRFNEHKQYTFMRKYKNELLFIVVNFDNQPVNVAINVPSHAFDFLQIPQFDSYKAVDLLTDKVEEISLLPYKATEIALGAYTGKILKIKEGHHHHHH”, the “soluble on expression in E. coli” value was “soluble”. In the case of “MWLSGARLVLPDRVLTEGSLRLEGERIAEVREGFVPSGMDLRGFTVVPGLVDLHGDSLERELEPRPGVRLPLELALPSWELRQLAAGITTVYATVAFWEGAGGVREPDQGLRLAQELWGLRSALHVDLRIHARYEVSRPQGEPAVREALRKGWVHLLSFMDHTPGQGQFHDLETYVRYMARHHGRPEAEVYDEVKRLSTRATWEGLEALAAEALAKSIPLASHDDDTPDRVALMARLGVTVSEFPVRLEAAKEAKVRGMTVVMGAPNALRGGSHHGNLSALDALREGLLDALATDYLPEAALRAPFRLAAQGLLDLPLALALVTRRPALAVGLADRGALAPGLRADLVVLKESPFSVLGAFVAGKPVFVGGELAHALA”, the “soluble on expression in E. coli” value is reported as “soluble”. With “MIRNPKIYIIILNYNAYEDTLECVKSIGNIDYDNYELVLVDNSSTDDSYVKLKESLPSYNIIKSKENLGYANGNNIGIKYALENGADYICILNNDVVVEKDFLNKLVDKIIEKEDVGIVGSCICDYYRREIIQGMGAHINLYFAAARRYFKGKNYNEIEKKDIFVDYLEGACFLVKSEVFEKIGLIPENYFLFFEETEFCTRAINAGYKIMCIYESKVYHKGSATINKFGSLSYAYLNRNRVIFVRRNSKWYQKIIFAIYIFIEAFGRIVIRKEPLTLFKYILGGFKSNKESIDVIDVKSYVKLEHHHHHH” the “soluble on expression in E. coli” value was “not soluble”. With “MTQAILALSQIEKAFPGVKALDKASLNVYPGRVMALMGENGAGKSTLMKVLTGIYSKDAGSIEYQGQPVSFKGPRDSQLAGISIIHQELNLIPQLTIAENIFLGREMTSPFGRILWDEMHRKADQLLARLNVKHSAKTLLGELSLGEQQMVEIAKALSFESKVIIMDEPTDALTDTETESLFNVINELREQGCGIVYISHRLKEIFEICDDITVLRDGKFIGECRVCDTNEDGLIEMMVGRKLEEQYPRIAAQQGDISLEVIGLTGSGVHDVSFTLKKGEILGVSGLMGAGRTELMKVIYGALPSERGVINLNGRTVNPVSPQDGLANGIAYISEDRKGDGLVLGLSVKENMSLCALDQLSKGVQIRHADEVIAVDDFIRLFNIKTPSREQIIGNLSGGNQQKVAIAKGLMTKPKVLILDEPTRGVDVGAKKEIYQLINQFKAEGMSIILVSSEMPEVLGMSDRILVMHEGRISGEFMASEADQEKLMACAVGRNPAHAA” the “soluble on expression in E. coli” value was “not soluble”. With “MGSDKIHHHHHHFDKIPTNPNLYHDVSSFSTADLTGKVQKIKLGSKFKIRSLITNKAKTPVFKLSNGRFIRASHDNVYEDIVLRRENVKGSYWLKKTFTVYQTPYVAGTKIANTKLTNYNKVHISQKAITKHGIYLKADGQGWINEKDLTVQDNRMEKVQALLTRKYNKPNYSIYVKQLKTRKTAGINEDKSMYSASVTKLPILYFIEKQIKDGRVKLTDKFKYIEQVNQFKGAYKVEGSGEMPKKADNKYYTVDSLLKAVTQHSDNVASNILGYYIAHQYDKTYQKTVLRVADVKWNMESRNVSSKTAANVMEALYSQKSPVISYLTSTEFDNTRISRDIAVPVAHKVGDAYDYKHDVAIIYADQPFILSVFTDKSSYEDISTIADDVYGILK” the “soluble on expression in E. coli” value was “not soluble”. In the case of “GMTKLPATSDIYISFFMFTTNLQPDNLDYRRIVVAHIKKLQRFGYSGFEFPIAPGLPENYAQDLENYTNLRHYLDSEGLENVKISTNVGATRTFDPSSNYPEQRQEALEYLKSRVDITAALGGEIMMGPIVIPYGVFPTTDFNEPIWSDELQEHLKVRYANAQPILDKLGEYAEIKKVKLAIEPITHWETPGPNKLSQLIEFLKGVKSKQVGVVIDSAHEILDGEGPEIFKTQVEYLAQQGRLHYVQVSPPDRGALHTSWLPWKSFLTPIVKVYDGPIAVEIFNAIPAFTNSLRLTRRKFWIPDEDPPNQYPNAYDIADEAIKVTRKELKKIGSK”, the “soluble on expression in E. coli” value is reported as “soluble”. For “MKFSIIVPSYNSEKYIAELLNSLQNQSYDKKDFEVILVDDCSSDNTLNVVEAYKNKLNLIIKQLDTNSGGPGKPRNTALQLAQGEYVFFVDSDDYINKDTLKDVSKFVDQNHADVVLVKMEGVNGRGVPKSMFKETSDAVTLANSRIIYTLSPTKFYRTSLLRDHAIEFPEDLRSAEDQLFTMKAYVNAKRIAVLADKPYYYATKREGEHMSSAYVSPEDFYKVMSLITEEILNSPLENKNEVLGYFIDRHFSFSRTNNFSLKIADDKKEAWMDALGDFIQKVPTVVDELVNDSFKPLLHYARLKDMKHYQMVEESYKNGKFHSYSAQEGTLKIQFDEGEPYFVFKKLVKPDIRMSHFEFNDQGFELELEFISSIINPNHVASMIQLKLLSRNKKEFIYIPLTMNDQTRFKFKADLNDLMPYLIKEKVWDAHLEMRVDNMTIEKRIGNKRVKYPYSKETSTITQYNNQYYRFTPYFTKDFDNLSFYITSNKLNEMLAVEIKDKQTIQLRSLEFNYILSEGMTAVILPHMFTYGYLTSVTTKDTLTYHLSVGEKVKDKDLKKNFKIETPHLVLKYLEHHHHHH”, the “soluble on expression in E. coli” value was “soluble”. With “MSLKLVLHSAKRASAPYRVRIGLNLKGLAFELRPVDLVANAHQGEAYRALNAQALVPTLEVDGRPLTQSLAILEWLDETYPAHPLLPTDAFDRATVRAMAEIIACDIHPLNNLRILRQLTALEIDEPARNAWVARWIQDGFSALEPMIARHGQGYAFGDAPGLVDCLLVPQVFNANRFNVDLSPFPALEAAAAHARAHPAIAAAHPDHHPEEGHHHHHH” the “soluble on expression in E. coli” value was “soluble”. With “MGSDKIHHHHHHMSQYAEMSLVYDQLTQDQPYEKWFEIVKNHCKDESNILDIGCGTGSLTVQLEALGNVTGMDLSVDMLTVAAQKSANVNWLEGDMTSFDLQQQFDIITIFCDSLNYLQDETAVIETFINVYHHLTDSGVFIFDVHTVYKMMTLFNNQSYIDDKGDIFLAWDAVQGDLPLSVYHDMTFFIRHEDETYSRFDESHFQRTFDEKTYLSWLAQVGFKHVETFTDFNIDEHNEDTERLFFIAKK” the “soluble on expression in E. coli” value was “not soluble”.
